The values that follow come from US20090297501A1 (Chugai, published 2009).

For experiment [1], the target named is monkey Mpl (monkey). Description: cell-based or functional assay.
Experiment [2] addresses T1, human Mpl (human, UniProt P40238 26-635).
T1 sequence (looked up): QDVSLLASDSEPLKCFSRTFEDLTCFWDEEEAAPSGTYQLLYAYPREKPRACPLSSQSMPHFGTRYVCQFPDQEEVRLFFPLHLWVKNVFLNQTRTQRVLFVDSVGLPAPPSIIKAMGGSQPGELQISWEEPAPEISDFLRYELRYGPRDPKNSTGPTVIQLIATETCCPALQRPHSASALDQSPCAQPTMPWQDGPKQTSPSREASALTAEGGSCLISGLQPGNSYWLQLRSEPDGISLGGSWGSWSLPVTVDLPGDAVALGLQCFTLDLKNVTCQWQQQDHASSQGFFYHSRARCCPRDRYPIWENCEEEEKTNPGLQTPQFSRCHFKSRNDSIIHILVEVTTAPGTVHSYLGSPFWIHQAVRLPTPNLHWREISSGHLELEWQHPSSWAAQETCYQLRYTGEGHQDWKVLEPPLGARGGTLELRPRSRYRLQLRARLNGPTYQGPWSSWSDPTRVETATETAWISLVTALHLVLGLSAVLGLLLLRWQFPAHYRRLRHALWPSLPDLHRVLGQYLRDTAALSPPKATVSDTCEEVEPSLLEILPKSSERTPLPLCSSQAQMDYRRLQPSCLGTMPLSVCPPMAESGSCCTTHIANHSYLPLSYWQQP
The experiment can be described thus: cell-based or functional assay.

Experiment [3] has as its target monkey Mpl (monkey). Description: cell-based or functional assay. The source holds these as a separate data set.
Experiment [4] addresses T1, human Mpl. Description: cell-based or functional assay. This is another data set of the same source.
For experiment [5], the target named is T2, fusion protein of GST and MG10 (Gln213 to Ala231 in the amino acid sequence of human Mpl) (human, UniProt P40238 213-231).
T2 construct: the parts follow the printed name MG10-GST; also called MG10-GST fusion protein; not shown: glutathione S-transferase (GST)
The experiment can be described thus: Biacore 3000, MG10-GST amine-coupled on CM5, sc(Fv)2 as analyte, bivalent analyte model, n = 3. The procedure: The binding activities of hVB22B u2-wz4 sc(Fv)2, and peak 1 and peak 2 separated from hVB22B u2-wz4 sc(Fv)2 were evaluated as described below. Sensor Chip CM5 Biacore) was placed in Biacore 3000 (Biacore), and a fusion protein of MG10 (Gln213 to Ala231 of human Mpl) and GST described in Section 2-1 was immobilized onto the chip by the amine-coupling method. HSS-EP Buffer (Biacore) was used as the running buffer for the measurement. The flow rate was 20 μl/min. Six concentrations of each of humanized VB22B u2-wz4 sc(Fv)2 bulk, peak 1, and peak 2 within about 5 to 150 nM were prepared using HBS-EP Buffer. Each of the samples was injected over the above-described MG10-immobilized cell for 2 minutes to reveal the binding region. Then, the measurement was conducted for 2 minutes to reveal the dissociation region. VB22B sc(Fv)2 bound to the MG10-GST fusion protein was removed by injecting 20 mM HCl for 1 minute to recover the immobilized cell. The association rate constant (ka) and dissociation rate constant (kd) were calculated from the obtained sensorgram using the BIAevaluation Version 3.1 ([…]) software applying the bivalent analyte model.

Experiment [6] has as its target monkey Mpl (monkey). The experiment can be described thus: cell-based or functional assay. This is another data set of the same source.
The target of experiment [7] is T1, human Mpl. The experiment can be described thus: cell-based or functional assay. This is another data set of the same source.
Experiment [8] deals with Mpl on the BaF3 cells used in FIG. 33 (human or monkey, not stated). The experiment can be described thus: cell-based or functional assay.

Where two headings read alike, the source gives them in different places.

B1: humanized anti-human Mpl antibody hVB22B u2-wz4 sc(Fv)2 (bulk, before separation of the structural isomers) (scFv)
chain: QVQLVQSGPEVKKPGASVKVSCKASGYTFTNSWMNWVRQRPGKGLEWIGRIYPGDGETIYNGKFRVRVTITADESTSTAYMQLSSLRSEDTAVYYCARGYDDYSFAYWGQGTTVTVSSGGGGSGGGGSGGGGSDIVMTQSPLSLPVTPGEPASISCRSSKSLLHSNGNTYLYWFLQKPGQSPQLLIYRMSNLASGVPDRFSGSGSGTDFTLKISRVEAEDVGVYYCMQHIEYPFTFGQGTKLEIKGGGGSGGGGSGGGGSQVQLVQSGPEVKKPGASVKVSCKASGYTFTNSWMNWVRQRPGKGLEWIGRIYPGDGETIYNGKFRVRVTITADESTSTAYMQLSSLRSEDTAVYYCARGYDDYSFAYWGQGTTVTVSSGGGGSGGGGSGGGGSDIVMTQSPLSLPVTPGEPASISCRSSKSLLHSNGNTYLYWFLQKPGQSPQLLIYRMSNLASGVPDRFSGSGSGTDFTLKISRVEAEDVGVYYCMQHIEYPFTFGQGTKLEIK
notes: sc(Fv)2, a single chain VH1-linker-VL2-linker-VH3-linker-VL4, not Flag-tagged; also called humanized VB22B u2-wz4 sc(Fv)2 bulk
The term koff denotes a measure of how fast the partners let go of each other. One may read the kon as the rate constant with which the complex forms. With B1, the “EC50 (read off the curve) (growth of BaF3-monkey Mpl cells, WST-8) [B]” value (“EC50 (read off the curve) … [B]” for short) with monkey Mpl [1] is about 0.04 nM; in the experiment with monkey Mpl [3], about 0.02 nM. For the same molecule, the “EC50 (read off the curve) (growth of BaF3-human Mpl cells, WST-8) [A]” value (from here on “EC50 (read off the curve) … [A]”) in the experiment with human Mpl [2] is about 0.04 nM; in the experiment with human Mpl [4] it was about 0.06 nM. For the same molecule, the Kd in experiment [5] is 10.2 nM. In experiment [5], this molecule came in with a koff of 0.00617 s⁻¹. In experiment [5], this molecule yielded a kon of 608000 M⁻¹ s⁻¹.

B2: hVB22B u2-wz4 sc(Fv)2 peak 2 (single chain diabody type structural isomer) (scFv)
chain: QVQLVQSGPEVKKPGASVKVSCKASGYTFTNSWMNWVRQRPGKGLEWIGRIYPGDGETIYNGKFRVRVTITADESTSTAYMQLSSLRSEDTAVYYCARGYDDYSFAYWGQGTTVTVSSGGGGSGGGGSGGGGSDIVMTQSPLSLPVTPGEPASISCRSSKSLLHSNGNTYLYWFLQKPGQSPQLLIYRMSNLASGVPDRFSGSGSGTDFTLKISRVEAEDVGVYYCMQHIEYPFTFGQGTKLEIKGGGGSGGGGSGGGGSQVQLVQSGPEVKKPGASVKVSCKASGYTFTNSWMNWVRQRPGKGLEWIGRIYPGDGETIYNGKFRVRVTITADESTSTAYMQLSSLRSEDTAVYYCARGYDDYSFAYWGQGTTVTVSSGGGGSGGGGSGGGGSDIVMTQSPLSLPVTPGEPASISCRSSKSLLHSNGNTYLYWFLQKPGQSPQLLIYRMSNLASGVPDRFSGSGSGTDFTLKISRVEAEDVGVYYCMQHIEYPFTFGQGTKLEIK
notes: also called purified u2-wz4 peak 2
Turning to B2, the “EC50 (read off the curve) … [B]” value with monkey Mpl [1] was about 0.03 nM; with monkey Mpl [3], about 0.02 nM. Moreover, the figures for the “EC50 (read off the curve) … [A]” value with human Mpl [2] and with human Mpl [4] were about 0.04 nM and about 0.05 nM, respectively. In addition, the Kd in experiment [5] amounted to 9.92 nM. Further, the off-rate constant (koff) in experiment [5] turned out to be 0.00566 s⁻¹. The kon in experiment [5] turned out to be 571000 M⁻¹ s⁻¹.

B3: hVB22B u2-wz4 sc(Fv)2 peak 1 (bivalent scFv type structural isomer) (scFv)
chain: QVQLVQSGPEVKKPGASVKVSCKASGYTFTNSWMNWVRQRPGKGLEWIGRIYPGDGETIYNGKFRVRVTITADESTSTAYMQLSSLRSEDTAVYYCARGYDDYSFAYWGQGTTVTVSSGGGGSGGGGSGGGGSDIVMTQSPLSLPVTPGEPASISCRSSKSLLHSNGNTYLYWFLQKPGQSPQLLIYRMSNLASGVPDRFSGSGSGTDFTLKISRVEAEDVGVYYCMQHIEYPFTFGQGTKLEIKGGGGSGGGGSGGGGSQVQLVQSGPEVKKPGASVKVSCKASGYTFTNSWMNWVRQRPGKGLEWIGRIYPGDGETIYNGKFRVRVTITADESTSTAYMQLSSLRSEDTAVYYCARGYDDYSFAYWGQGTTVTVSSGGGGSGGGGSGGGGSDIVMTQSPLSLPVTPGEPASISCRSSKSLLHSNGNTYLYWFLQKPGQSPQLLIYRMSNLASGVPDRFSGSGSGTDFTLKISRVEAEDVGVYYCMQHIEYPFTFGQGTKLEIK
notes: also called purified u2-wz4 peak 1
As to B3, the “EC50 (read off the curve) … [A]” value with human Mpl [2] is about 0.07 nM. Besides, the “EC50 (read off the curve) … [A]” value with human Mpl [4] is about 0.09 nM. In experiment [5], this molecule gave a Kd of 12.4 nM, a koff of 0.00727 s⁻¹ and a kon of 586000 M⁻¹ s⁻¹.

B4: modified hVB22B u2-wz4(v1) sc(Fv)2 (scFv)
chain: QVQLVQSGPEVKKPGASVKVSCKASGYTFTNSWMNWVRERPGKGLEWIGRIYPGDGETIYNGKFRVRVTITADESTSTAYMQLSSLRSEDTAVYYCARGYDDYSFAYWGQGTTVTVSSGGGGSGGGGSGGGGSDIVMTQSPLSLPVTPGEPASISCRSSKSLLHSNGNTYLYWFLEKPGQSPQLLIYRMSNLASGVPDRFSGSGSGTDFTLKISRVEAEDVGVYYCMQHIEYPFTFGQGTKLEIKGGGGSGGGGSGGGGSQVQLVQSGPEVKKPGASVKVSCKASGYTFTNSWMNWVRKRPGKGLEWIGRIYPGDGETIYNGKFRVRVTITADESTSTAYMQLSSLRSEDTAVYYCARGYDDYSFAYWGQGTTVTVSSGGGGSGGGGSGGGGSDIVMTQSPLSLPVTPGEPASISCRSSKSLLHSNGNTYLYWFLKKPGQSPQLLIYRMSNLASGVPDRFSGSGSGTDFTLKISRVEAEDVGVYYCMQHIEYPFTFGQGTKLEIK
Turning to B4, the “EC50 (read off the curve) … [B]” value with monkey Mpl [3] is about 0.04 nM. Also, the “EC50 (read off the curve) … [A]” value in the experiment with human Mpl [4] is about 0.04 nM.

B5: modified hVB22B u2-wz4(v3) sc(Fv)2 (scFv)
chain: QVQLVQSGPEVKKPGASVKVSCKASGYTFTNSWMNWVRERPGKGLEWIGRIYPGDGETIYNGKFRVRVTITADESTSTAYMQLSSLRSEDTAVYYCARGYDDYSFAYWGQGTTVTVSSGGGGSGGGGSGGGGSDIVMTQSPLSLPVTPGEPASISCRSSKSLLHSNGNTYLYWFLKKPGQSPQLLIYRMSNLASGVPDRFSGSGSGTDFTLKISRVEAEDVGVYYCMQHIEYPFTFGQGTKLEIKGGGGSGGGGSGGGGSQVQLVQSGPEVKKPGASVKVSCKASGYTFTNSWMNWVRKRPGKGLEWIGRIYPGDGETIYNGKFRVRVTITADESTSTAYMQLSSLRSEDTAVYYCARGYDDYSFAYWGQGTTVTVSSGGGGSGGGGSGGGGSDIVMTQSPLSLPVTPGEPASISCRSSKSLLHSNGNTYLYWFLEKPGQSPQLLIYRMSNLASGVPDRFSGSGSGTDFTLKISRVEAEDVGVYYCMQHIEYPFTFGQGTKLEIK
For B5, the “EC50 (read off the curve) … [A]” value with human Mpl [4] is about 0.1 nM.

B6: anti-human Mpl antibody VB22B sc(Fv)2 peak 2 (single chain diabody type structural isomer) (scFv)
chain: QVQLQQSGPELVKPGASVKISCKASGYAFTNSWMNWVKQRPGKGLEWIGRIYPGDGETIYNGKFRVKATLTADKSSSTAYMDISSLTSEDSAVYFCARGYDDYSFAYWGQGTLVTVSAGGGGSGGGGSGGGGSDIVMTQAAPSIPVTPGESVSISCRSSKSLLHSNGNTYLYWFLQRPGQSPQLLIYRMSNLASGVPDRFSGSGSGTAFTLRISRVEAEDVGVYYCMQHIEYPFTFGSGTKLEIKGGGGSGGGGSGGGGSQVQLQQSGPELVKPGASVKISCKASGYAFTNSWMNWVKQRPGKGLEWIGRIYPGDGETIYNGKFRVKATLTADKSSSTAYMDISSLTSEDSAVYFCARGYDDYSFAYWGQGTLVTVSAGGGGSGGGGSGGGGSDIVMTQAAPSIPVTPGESVSISCRSSKSLLHSNGNTYLYWFLQRPGQSPQLLIYRMSNLASGVPDRFSGSGSGTAFTLRISRVEAEDVGVYYCMQHIEYPFTFGSGTKLEIK
Turning to B6, the “EC50 (read off the curve) … [B]” value with monkey Mpl [6] is about 0.02 nM. Also, in the experiment with human Mpl [7], the “EC50 (read off the curve) … [A]” value was about 0.008 nM. The “EC50 (read off the curve) (growth of Mpl-expressing BaF3 cells, WST-8; cell line not stated)” value in experiment [8] was about 0.6 ng/mL.

B7: anti-human Mpl antibody VB22B sc(Fv)2 (scFv)
chain: QVQLQQSGPELVKPGASVKISCKASGYAFTNSWMNWVKQRPGKGLEWIGRIYPGDGETIYNGKFRVKATLTADKSSSTAYMDISSLTSEDSAVYFCARGYDDYSFAYWGQGTLVTVSAGGGGSGGGGSGGGGSDIVMTQAAPSIPVTPGESVSISCRSSKSLLHSNGNTYLYWFLQRPGQSPQLLIYRMSNLASGVPDRFSGSGSGTAFTLRISRVEAEDVGVYYCMQHIEYPFTFGSGTKLEIKGGGGSGGGGSGGGGSQVQLQQSGPELVKPGASVKISCKASGYAFTNSWMNWVKQRPGKGLEWIGRIYPGDGETIYNGKFRVKATLTADKSSSTAYMDISSLTSEDSAVYFCARGYDDYSFAYWGQGTLVTVSAGGGGSGGGGSGGGGSDIVMTQAAPSIPVTPGESVSISCRSSKSLLHSNGNTYLYWFLQRPGQSPQLLIYRMSNLASGVPDRFSGSGSGTAFTLRISRVEAEDVGVYYCMQHIEYPFTFGSGTKLEIK
Turning to B7, in the experiment with monkey Mpl [6], the “EC50 (read off the curve) … [B]” value was about 0.03 nM. In addition, the “EC50 (read off the curve) … [A]” value in the experiment with human Mpl [7] was about 0.01 nM.
